One block for each molecule: values may come before it.
How the values were obtained:
ActRII-ECD (mouse) = experiment: SPR; Biacore 2000; receptor ECDs immobilised on a CM5 chip by primary amine coupling, ligands flowed over; at least five concentrations plus zero; global 1:1 Langmuir binding with mass transfer, KD calculated as koff/kon
Sequence of ActRII-ECD (mouse) (P27038 whole entry, the tested form may be a part): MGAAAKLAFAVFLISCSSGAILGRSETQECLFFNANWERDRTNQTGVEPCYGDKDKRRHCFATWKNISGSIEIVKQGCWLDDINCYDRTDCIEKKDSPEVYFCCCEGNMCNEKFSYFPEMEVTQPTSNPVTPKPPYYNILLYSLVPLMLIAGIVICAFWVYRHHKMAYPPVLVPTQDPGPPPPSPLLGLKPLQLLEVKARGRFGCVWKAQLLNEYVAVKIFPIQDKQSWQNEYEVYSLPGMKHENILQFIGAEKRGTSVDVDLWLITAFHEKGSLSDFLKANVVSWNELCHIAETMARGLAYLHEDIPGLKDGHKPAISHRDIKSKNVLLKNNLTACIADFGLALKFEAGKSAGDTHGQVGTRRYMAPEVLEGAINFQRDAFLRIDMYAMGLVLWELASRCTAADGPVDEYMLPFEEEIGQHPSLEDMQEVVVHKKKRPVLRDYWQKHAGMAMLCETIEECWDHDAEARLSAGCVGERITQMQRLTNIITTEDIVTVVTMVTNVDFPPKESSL

Kd (ActRII-ECD (mouse)): 36.8 nM
koff (ActRII-ECD (mouse)): 0.0405 s⁻¹
kon (ActRII-ECD (mouse)): 1.1e+06 M⁻¹ s⁻¹
Molecule: BMP-2 (BBBBBB) (from UniProt P12643 283-396) (ligand)

Smad1 luciferase reporter in C2C12 cells, 30 ng/ml ligand with 30, 100 and 300 ng/ml Noggin (% of signaling levels) (AB212 (BBBBBA) (human)): 75
B1: Noggin (natural protein)
chain: QHYLHIRPAPSDNLPLVDLIEHPDPIFDPKEKDLNETLLRSLLGGHYDPGFMATSPPEDRPGGGGGAAGGAEDLAELDQLLRQRPSGAMPSEIKGLEFSEGLAQGKKQRLSKKLRRKLQMWLWSQTFCPVLYAWNDLGSRFWPRYVKVGSCFSKRSCSVPEGMVCKPSKSVHLTVLRWRCQRRGGQRCGWIPIQYPIISECKCSC

Kd (ActRII-ECD (mouse)): 0.203 nM
koff (ActRII-ECD (mouse)): 0.000716 s⁻¹
kon (ActRII-ECD (mouse)): 3.52e+06 M⁻¹ s⁻¹
B2: Activin-βA (AAAAAA) (ligand)
chain: GLECDGKVNICCKKQFFVSFKDIGWNDWIIAPSGYHANYCEGECPSHIAGTSGSSLSFHSTVINHYRMRGHSPFANLKSCCVPTKLRPMSMLYYDDGQNIIKKDIQNMIVEECGCS

Source: publication PMC3208551
